Laboratory results: US20220089722A1

Target: CD3 on T cells (Jurkat T cells; PBMC-T cells)
Assay: flow cytometry on Jurkat T cells; protein purified on CH1 resin

Chain of CD3 on T cells (Jurkat T cells; PBMC-T cells) (P07766 23-207): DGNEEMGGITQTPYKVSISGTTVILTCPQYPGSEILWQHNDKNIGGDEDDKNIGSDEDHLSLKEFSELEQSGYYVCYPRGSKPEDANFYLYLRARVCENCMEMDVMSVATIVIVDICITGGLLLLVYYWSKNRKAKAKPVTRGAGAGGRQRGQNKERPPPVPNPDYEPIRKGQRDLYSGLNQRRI

- Kd: 6.12 nM
B1: IgFD-36(anti-CD3) (antibody, human IgG1, kappa, V domains shown)
VH: EVQLVESGGGLVQPGGSLRLSCAASGFTFNTYAMNWVRQAPGKGLEWVARIRSKYNNYATYYADSVKDRFTISRDDSKNTLYLQMNSLRAEDTAVYYCVRHGNFGNSYVSWFAYWGQGTLVTVSS
VL: QAVVTQEPSLTVSPGGTVTLTCRSSTGAVTTSNYANWVQQKPDHLFRGLIGGTNKRAPGTPARFSGSLLGDKAALTISGAQPEDEAEYYCALWYSNLWVFGGGTKLTVLK
